# Assay results from patent US6866854 (TRUSTEES OF COLUMBIA UNIVERSITY IN THE CITY OF NEW YORK, dated 2005).
# B1: murine p53 fused to GAL4 DNA-binding domain (DNA-BD/murine p53 fusion protein PVA3) (other)
# chain: MKLLSSIEQACDICRLKKLKCSKEKPKCAKCLKNNWECRYSPKTKRSPLTRAHLTEVESRLERLEQLFLLIFPREDLDMILKMDSLQDIKALLTGLFVQDNVNKDAVTDRLASVETDMPLTLRQHRISATSSSEESSNKGQRQLTVSPVTETPGPVAPAPATPWPLSSFVPSQKTYQGNYGFHLGFLQSGTAKSVMCTYSPPLNKLFCQLAKTCPVQLWVSATPPAGSRVRAMAIYKKSQHMTEVVRRCPHHERCSDGDGLAPPQHLIRVEGNLYPEYLEDRQTFRHSVVVPYEPPEAGSEYTTIHYKYMCNSSCMGGMNRRPILTIITLEDSSGNLLGRDSFEVRVCACPGRDRRTEEENFRKKEVLCPELPPGSAKRALPTCTSASPPQKKKPLDGEYFTLKIRGRKRFEMFRELNEALELKDAHATEESGDSRAHSSYLKTKKGQSTSRHKKTMVKKVGPDSD
# notes: also called p53 into the Gal4-BD cassette
# Biological target: T1, LANA2 fused to GAL4-AD (plasmid pGAD424) (Kaposi's sarcoma-associated herpesvirus …, UniProt F5HIC6 1-566)
# T1 sequence: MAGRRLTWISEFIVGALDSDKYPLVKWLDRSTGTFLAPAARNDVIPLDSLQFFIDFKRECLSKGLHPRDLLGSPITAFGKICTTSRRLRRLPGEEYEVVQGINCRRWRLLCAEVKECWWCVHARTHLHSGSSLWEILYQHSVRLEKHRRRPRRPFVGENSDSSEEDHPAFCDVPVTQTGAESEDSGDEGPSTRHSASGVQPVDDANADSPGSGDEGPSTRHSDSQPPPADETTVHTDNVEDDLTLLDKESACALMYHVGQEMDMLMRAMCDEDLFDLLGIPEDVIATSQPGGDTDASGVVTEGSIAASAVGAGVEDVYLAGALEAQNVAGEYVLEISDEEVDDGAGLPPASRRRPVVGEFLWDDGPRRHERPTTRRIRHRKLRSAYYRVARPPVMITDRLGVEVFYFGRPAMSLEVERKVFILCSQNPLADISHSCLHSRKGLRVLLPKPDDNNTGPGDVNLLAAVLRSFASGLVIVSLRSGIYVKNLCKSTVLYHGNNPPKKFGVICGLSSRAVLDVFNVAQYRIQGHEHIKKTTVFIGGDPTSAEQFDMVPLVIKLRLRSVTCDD
# Assay: yeast two-hybrid assay, strain Y-190, b-galactosidase
binder,measurement,value
B1,binding result,no binding
